This is an account of results in patent US20260070940A1 (Hoffmann-La Roche, published 2026).

Where “and” joins values, the source holds several entries; their conditions need not be identical. Equal values may be shown once.

The target of test [1] is T1, soluble human Lag3-IgG1-Fc with biotinylated C-terminal Avi-tag (human, biotin on the Avi-tag).
T1 construct: Lag3 ECD, IEGRMD linker, IgG1 Fc, Avi-tag; also called LAG3-Fc-avi; biotinylated LAG3-Fc
Description: A375 MHCII competition ELISA. (In general: ELISA stands for enzyme-linked immunosorbent assay.)

For test [2], the target named is T1, soluble human Lag3-IgG1-Fc with …. The experiment in a line: A375 MHCII competition ELISA, 3 ug/ml.
Test [3] deals with T2, recombinant human LAG3 Fc Chimera Protein (R&D Systems, 2319-L3) (human, UniProt P18627 23-450).
T2 construct: Bought
T2 sequence (looked up): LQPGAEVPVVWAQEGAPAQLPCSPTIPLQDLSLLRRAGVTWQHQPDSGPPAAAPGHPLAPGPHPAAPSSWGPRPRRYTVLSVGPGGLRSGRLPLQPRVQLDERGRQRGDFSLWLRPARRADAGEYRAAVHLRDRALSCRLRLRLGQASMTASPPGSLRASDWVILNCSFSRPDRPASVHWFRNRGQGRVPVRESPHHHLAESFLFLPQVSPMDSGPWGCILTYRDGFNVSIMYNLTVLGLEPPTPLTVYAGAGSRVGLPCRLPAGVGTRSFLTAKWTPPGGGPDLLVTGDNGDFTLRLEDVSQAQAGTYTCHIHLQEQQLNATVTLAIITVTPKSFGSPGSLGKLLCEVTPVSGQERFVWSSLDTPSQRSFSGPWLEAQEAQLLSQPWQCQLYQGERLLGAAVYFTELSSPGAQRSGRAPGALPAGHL
Description: ELISA, coated LAG3 Fc.

The target of test [4] is T3, human LAG3 on recombinant CHO cells (human, UniProt P18627 23-525).
T3 construct: whole, on cells; also called Lag3 cells
T3 sequence (looked up): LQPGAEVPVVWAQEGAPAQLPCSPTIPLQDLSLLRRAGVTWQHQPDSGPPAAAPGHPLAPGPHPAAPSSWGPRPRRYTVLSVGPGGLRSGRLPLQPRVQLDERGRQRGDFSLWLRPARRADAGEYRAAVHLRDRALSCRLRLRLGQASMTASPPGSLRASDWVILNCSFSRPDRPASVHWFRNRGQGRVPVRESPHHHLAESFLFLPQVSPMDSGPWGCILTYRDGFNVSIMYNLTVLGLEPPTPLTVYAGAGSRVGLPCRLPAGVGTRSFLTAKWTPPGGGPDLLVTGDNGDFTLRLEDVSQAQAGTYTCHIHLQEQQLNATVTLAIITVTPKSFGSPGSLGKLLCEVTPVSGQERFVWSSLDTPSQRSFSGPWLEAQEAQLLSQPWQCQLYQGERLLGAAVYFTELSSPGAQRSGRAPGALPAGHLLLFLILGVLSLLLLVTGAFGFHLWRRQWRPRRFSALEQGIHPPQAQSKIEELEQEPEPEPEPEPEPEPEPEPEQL
The experiment in a line: cell ELISA, CHO-LAG3.

The target of test [5] is T2, recombinant human LAG3 Fc Chimera …. Description: SPR, captured aVH-Fc, LAG3 Fc analyte. (In SPR one partner is held on a chip, and binding of the other changes the refractive index at the surface.)
Test [6] concerns the target T4, murine LAG3-Fc antigen (R&D Systems, 3328-L3-050) (murine, UniProt Q61790 24-442).
T4 construct: Bought
T4 sequence (looked up): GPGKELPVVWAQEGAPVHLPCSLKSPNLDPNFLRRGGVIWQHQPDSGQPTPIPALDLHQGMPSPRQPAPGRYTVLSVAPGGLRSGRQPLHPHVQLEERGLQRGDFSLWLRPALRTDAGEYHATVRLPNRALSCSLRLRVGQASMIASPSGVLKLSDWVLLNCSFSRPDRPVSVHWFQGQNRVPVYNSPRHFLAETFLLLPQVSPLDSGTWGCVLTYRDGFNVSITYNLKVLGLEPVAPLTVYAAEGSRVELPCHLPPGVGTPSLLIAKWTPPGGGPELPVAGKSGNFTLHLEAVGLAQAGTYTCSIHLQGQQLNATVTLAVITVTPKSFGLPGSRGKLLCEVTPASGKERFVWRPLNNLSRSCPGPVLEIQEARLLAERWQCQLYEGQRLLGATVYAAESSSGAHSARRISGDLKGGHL
Description: ELISA, murine LAG3-Fc.

Test [7] addresses T5, MCSP antigen, amino acids 1553 to 2184 of matured MCSP with C-terminal avi-tag and His-tag, biotinylated (Homo sapiens (Human), UniProt Q6UVK1 1582-2213, limits assumed, biotin on the avi-tag).
T5 construct: also called recombinant MCSP
T5 sequence: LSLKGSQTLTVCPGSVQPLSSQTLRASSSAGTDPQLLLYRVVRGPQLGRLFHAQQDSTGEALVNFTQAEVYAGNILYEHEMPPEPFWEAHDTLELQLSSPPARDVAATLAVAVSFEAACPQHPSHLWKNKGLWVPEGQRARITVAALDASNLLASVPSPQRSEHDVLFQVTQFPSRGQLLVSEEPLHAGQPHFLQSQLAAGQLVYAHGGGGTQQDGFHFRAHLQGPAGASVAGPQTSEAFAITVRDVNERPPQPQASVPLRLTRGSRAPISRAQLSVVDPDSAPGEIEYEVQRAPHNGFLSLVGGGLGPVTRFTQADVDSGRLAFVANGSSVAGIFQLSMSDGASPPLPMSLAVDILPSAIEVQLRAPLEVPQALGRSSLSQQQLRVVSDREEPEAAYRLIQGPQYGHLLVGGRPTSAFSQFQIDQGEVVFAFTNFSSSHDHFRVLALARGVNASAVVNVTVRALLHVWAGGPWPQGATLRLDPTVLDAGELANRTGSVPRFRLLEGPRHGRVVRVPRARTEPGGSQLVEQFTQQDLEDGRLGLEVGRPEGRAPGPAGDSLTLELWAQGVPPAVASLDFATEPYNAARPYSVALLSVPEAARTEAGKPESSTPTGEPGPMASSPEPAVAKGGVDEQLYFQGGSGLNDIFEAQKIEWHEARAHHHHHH
Description: ELISA, supernatant on biotinylated antigen.

Test [8] addresses T2, recombinant human LAG3 Fc Chimera …. The experiment in a line: SPR, captured aVH-Fc, LAG3 Fc analyte; poor fit.
The target in test [9] is T6, full-length human CD28 with N-terminal SNAP tag on transfected Hek293 cells (human, UniProt P10747 19-220, SNAP tag labelled with terbium).
T6 construct: whole, on cells; also called hu CD28-SNAP
Description: FRET competition, unlabelled against d2-TGN1412 on CD28-SNAP cells; 95% CI in brackets.

In test [10] the target is T6, full-length human CD28 with N-terminal …. Description: FRET competition on cells with terbium-labelled hu CD28-SNAP; competitor d2-labelled TGN1412 (0.15 nM), unlabelled TGN1412 IgG titrated.
Test [11] concerns the target T2, recombinant human LAG3 Fc Chimera …. Description: SPR, captured antibody, LAG3 Fc analyte.

B1: 9B4 aVH-Fc, bivalent (PG-LALA) (Fc fusion)
chain: EVQLVESGGGLVQPGGSLRLSCAASGFNIKDTCIGWVRRAPGKGTELVAEICQDIGYTRYADSVKGRFTISADTSKNTAYLQMNSLRAEDTAVYYCAAVEVAEYFEYWGQGTTVTVSS
notes: not shown: linker and human IgG1 Fc (PG-LALA)
With B1, the IC50 (as a rule, the concentration at which inhibition is half-maximal) in test [1] was 0.0762 µg/mL and 1 nM. Besides, the % Inhibition (usually how much of the control response was suppressed) in test [2] was determined as 95.5%. For the same molecule, in test [3], the EC50 (usually the concentration that produces a half-maximal response) is 0.0194 µg/mL and 0.3 nM; the OD max was 1.2. Moreover, in test [4], the EC50 was 0.0288 µg/mL and 0.4 nM; the OD max is 1.3. Moreover, in test [5], the koff (as a rule, the first-order rate constant of dissociation) stood at 0.00019 s⁻¹ and the t½ (commonly the time in which the quantity being followed falls by half) turned out to be 61.1 min. The binding result in [6] was “no binding”.

B2: P10D1 aVH-Fc, bivalent (PG-LALA) (Fc fusion)
chain: EVQLVESGGGLVQPGGSLRLSCAASGFSIKDTCIAWVRRAPGKGTELVAEICEDIGYTRYADSVKGRFTISADTSKNTAYLQMNSLRAEDTAVYYCAAKEAGVGFDYWGQGTTVTVSS
notes: as for B1
Turning to B2, the IC50 in test [1] is 0.0933 µg/mL and 1.2 nM. The “% Inhibition” value in test [2] worked out at 93.4%. In addition, in [3], the EC50 was 0.113 µg/mL and 1.5 nM; the OD max came out at 0.9. For the same molecule, in [4], the concentration giving a half-maximal response (EC50) is 0.029 µg/mL and 0.4 nM; the OD max amounted to 1.2. In test [5], the koff came out at 0.00011 s⁻¹ and the t½ was 102 min. Further, in [6], the binding result is listed as “no binding”.

B3: SEQ ID NO 61 (VHH)
VHH: EVQLVESGGGLVQPGGSLRLSCAASSFNIKDTYIGWVRRAPGKGTELVAGIYCEAGITRYADSVKGRFTISCDTSKNTAYLQMNSLRAEDTAVYYCAGKGIGNYFDYWGQGTTVTVSS
notes: also called MCSP-specific aVH
B3: the binding result in [7] was “binds”.

B4: P11A2 aVH-Fc, bivalent (PG-LALA) (Fc fusion)
heavy: EVQLVESGGGLVQPGGSLRLSCAASSFNIKDTYIGWVRRAPGKGTELVAEIACHEGTTRYADSVKGRFTISCDTSKNTAYLQMNSLRAEDTAVYYCANTEYDDIFDYWGQGTTVTVSSGGGGSGGGGSDKTHTCPPCPAPEAAGGPSVFLFPPKPKDTLMISRTPEVTCVVVDVSHEDPEVKFNWYVDGVEVHNAKTKPREEQYNSTYRVVSVLTVLHQDWLNGKEYKCKVSNKALGAPIEKTISKAKGQPREPQVYTLPPSRDELTKNQVSLTCLVKGFYPSDIAVEWESNGQPENNYKTTPPVLDSDGSFFLYSKLTVDKSRWQQGNVFSCSVMHEALHNHYTQKSLSLSPGK
In the case of B4, the IC50 in test [1] is 0.0903 µg/mL and 1.2 nM. Also, the “% Inhibition” value in test [2] was found to be 92.4%. For the same molecule, the OD max in [3] worked out at 1.3. Also, in test [4], the EC50 was 0.0169 µg/mL and 0.2 nM; the OD max was determined as 1.2. In addition, the t½ in test [5] was found to be 2.4 min. In addition, the koff in test [8] stood at 0.0048 s⁻¹. Besides, the binding result in test [6] is listed as “no binding”.

B5: SEQ ID NO 59 (VHH)
VHH: EVQLVESGGGLVQPGGSLRLSCAASSFNIKDTYIGWVRRAPGKGTELVADIYCSEGSTRYADSVKGRFTISCDTSKNTAYLQMNSLRAEDTAVYYCAAVSDYVVFYYWGQGTTVTVSS
notes: also called MCSP-specific aVH
Consider B5, for which the binding result in test [7] was “binds”.

B6: TGN1412 IgG (antibody, V domains shown)
VH: QVQLVQSGAEVKKPGASVKVSCKASGYTFTSYYIHWVRQAPGQGLEWIGCIYPGNVNTNYNEKFKDRATLTVDTSISTAYMELSRLRSDDTAVYFCTRSHYGLDWNFDVWGQGTTVTVSS
VL: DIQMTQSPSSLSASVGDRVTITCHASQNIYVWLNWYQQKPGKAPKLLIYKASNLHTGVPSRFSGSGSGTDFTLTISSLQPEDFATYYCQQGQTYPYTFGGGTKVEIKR
In the case of B6, the affinity in test [9] corresponds to a Ki of 0.28 nM. For the same molecule, the “IC50 (read off the curve)” value in test [10] is ~0.6 nM.

B7: MDX 25F7 (antibody, V domains shown)
VH: QVQLQQWGAGLLKPSETLSLTCAVYGGSFSDYYWNWIRQPPGKGLEWIGEINHNGNTNSNPSLKSRVTLSLDTSKNQFSLKLRSVTAADTAVYYCAFGYSDYEYNWFDPWGQGTLVTVSS
VL: EIVLTQSPATLSLSPGERATLSCRASQSISSYLAWYQQKPGQAPRLLIYDASNRATGIPARFSGSGSGTDFTLTISSLEPEDFAVYYCQQRSNWPLTFGQGTNLEIK
In the case of B7, in [1], the IC50 was 0.127 µg/mL and 0.8 nM. Further, the “% Inhibition” value in test [2] was 90.4%. Moreover, in test [3], the 50% effective concentration (EC50) was 0.0031 µg/mL and 0.02 nM; the OD max was determined as 3.39. In addition, the OD max in test [4] came out at 2.06. For the same molecule, in test [11], the koff was determined as 0.00039 s⁻¹ and the t½ was 30 min.
